# Values of other authors in PMC9477365.
# Assays:
# [1] = target: fibrin (gamma' site) gamma' chain (Homo sapiens) (UniProt P02671)
# [2] = target: fibrin (E domain site) E domain (Homo sapiens) (UniProt P02671)
substance,measurement,setting,value
thrombin (from UniProt P00734),Kd,[1],9 µM
same,Kd,[2],2800 nM
